Assay results: patent US20220125919A1

How the values were obtained:
[1] = target: HCMV pp65 epitope … presented by HLA-A*0201 (human); test: cell-based or functional assay
[2] = target: EBV LMP2A epitope … presented by HLA-A*0201 (human); test: cell-based or functional assay

TCR that recognizes peptide … presented by A*0201 (PDB #5D2N)
luciferase induction relative to uninfected controls, short cassette design 9AA [1]: 33.6
luciferase induction relative to uninfected controls, short cassette design 17AA [1]: 42.8
luciferase induction relative to uninfected controls, short cassette design 25AA [1]: 42.3
luciferase induction relative to uninfected controls, short cassette design DPP [1]: 0.9
luciferase induction relative to uninfected controls, short cassette design RR [1]: 21.7
luciferase induction, in vitro T cell activation assay, short cassette design AAY [1]: 24.5
luciferase induction, in vitro T cell activation assay, targeting-sequence short cassette design A [1]: 32.5
luciferase induction, in vitro T cell activation assay, targeting-sequence short cassette design B [1]: 31.8
luciferase induction, in vitro T cell activation assay, targeting-sequence short cassette design C [1]: 29.1
luciferase induction, in vitro T cell activation assay, targeting-sequence short cassette design D [1]: 29.1
luciferase induction, in vitro T cell activation assay, targeting-sequence short cassette design E [1]: 28.4
luciferase induction, in vitro T cell activation assay, targeting-sequence short cassette design F [1]: 20.4
luciferase induction, in vitro T cell activation assay, targeting-sequence short cassette design G [1]: 35
luciferase induction, in vitro T cell activation assay, targeting-sequence short cassette design H [1]: 30.3
luciferase induction, in vitro T cell activation assay, targeting-sequence short cassette design I [1]: 22.5
luciferase induction, in vitro T cell activation assay, targeting-sequence short cassette design J [1]: 38.1

TCR that recognizes peptide … presented by A*0201 (PDB #3REV)
luciferase induction relative to uninfected controls, short cassette design 9AA [2]: 12
luciferase induction relative to uninfected controls, short cassette design 17AA [2]: 10.3
luciferase induction relative to uninfected controls, short cassette design 25AA [2]: 14.6
luciferase induction relative to uninfected controls, short cassette design DPP [2]: 1.1
luciferase induction relative to uninfected controls, short cassette design RR [2]: 8.5
